Where a chain is given by its changes, count along the chain named. In names and notes the source's numbering stands.
Target: the molecule itself
Test: cryo-EM structure; amyloid fibrils of the purified construct (formed at 50 μM in PBS, 37°C, shaking); helical reconstruction in RELION, de novo model of the fibril core

B1: TFG low-complexity domain (residues 237-327) with the G269V mutation conjugated to mCherry (domain or fragment, human, UniProt Q92734 237-327, looked up)
chain: GQIEGQMYQQYQQQAGYGAQQPQAPPQQPQQYVIQYSASYSQQTGPQQPQQFQGYGQQPTSQAPAPAFSGQPQQLPAQPPQQYQASNYPAQ
notes: TRK-fused gene protein (TFG), human, low-complexity domain residues 237-327 with the disease-related (CMT2) mutation G269V; PDB 8TEQ holds only the ordered fibril core (262-290 and 265-290); also called mC-TFG-LCD-G269V; G269V mutant; source: E. coli BL21(DE3) gold, purified (Ni-NTA, size exclusion chromatography), dialyzed into PBS; not shown: mCherry, N-terminal, kept
binding result: binds

B2: TFG low-complexity domain (residues 237-327) with the P285L mutation conjugated to mCherry (domain or fragment, human, UniProt Q92734 237-327, looked up)
chain: B1 chain with V33G, P49L
notes: TRK-fused gene protein (TFG), human, low-complexity domain residues 237-327 with the disease-related (HMSN-P) mutation P285L; PDB 8TER holds only the ordered fibril core (265-299); also called mC-TFG-LCD-P285L; P285L mutant; source: E. coli BL21(DE3) gold, purified (Ni-NTA, size exclusion chromatography), dialyzed into PBS; not shown: mCherry, N-terminal, kept
binding result: binds

Source: PMC10703350, “Fibril structures of TFG protein mutants validate the identification of TFG as a disease-related amyloid protein by the IMPAcT method” (PNAS Nexus, 2023)
